Publication PMC2759517 (2009)
Where no end group is shown, it is not given here.

T1: HA-tagged PA of FluB (Influenza B virus)
T1 chain: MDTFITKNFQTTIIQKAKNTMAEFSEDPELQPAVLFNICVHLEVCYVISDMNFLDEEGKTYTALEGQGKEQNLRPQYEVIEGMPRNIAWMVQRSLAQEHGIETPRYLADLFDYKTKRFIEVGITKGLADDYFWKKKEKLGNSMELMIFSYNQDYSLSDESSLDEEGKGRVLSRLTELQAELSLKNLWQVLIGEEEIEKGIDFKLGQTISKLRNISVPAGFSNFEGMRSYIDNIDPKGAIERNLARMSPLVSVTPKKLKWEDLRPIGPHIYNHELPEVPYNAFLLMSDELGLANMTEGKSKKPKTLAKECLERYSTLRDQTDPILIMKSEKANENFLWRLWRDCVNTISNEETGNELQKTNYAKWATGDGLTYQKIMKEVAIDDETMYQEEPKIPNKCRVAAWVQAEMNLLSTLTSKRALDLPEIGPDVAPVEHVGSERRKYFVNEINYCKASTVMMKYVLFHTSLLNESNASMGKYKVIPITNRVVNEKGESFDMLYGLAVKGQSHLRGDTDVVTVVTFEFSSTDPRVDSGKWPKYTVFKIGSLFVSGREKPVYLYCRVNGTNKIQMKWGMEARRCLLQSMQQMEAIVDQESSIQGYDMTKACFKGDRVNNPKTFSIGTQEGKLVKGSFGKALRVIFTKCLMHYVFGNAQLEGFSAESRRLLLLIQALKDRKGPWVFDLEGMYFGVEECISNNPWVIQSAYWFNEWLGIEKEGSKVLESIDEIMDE


Columns and labels:
HA-tagged PA of FluB = molecular target: T1, HA-tagged PA of FluB; test: ELISA
HA-tagged PA of FluA = HA-tagged PA of FluA (Influenza A virus); test: ELISA

| Binder | IC50 (HA-tagged PA of FluB) [nM] | IC50 (HA-tagged PA of FluA) [nM] |
| --- | --- | --- |
| MDVNPTLLFLKVPAQ-NH2 [PB1_(1–15)A competitor peptide] | > 3000 | – |
| MNINPYFLFIDVPIQ-NH2 [PB1_(1–15)B competitor peptide] | 45 | > 3000 |
